# In US20230212319A1, “NOVEL ANTIGEN BINDING DOMAINS AND SYNTHETIC ANTIGEN RECEPTORS INCORPORATING THE SAME” (University of Southern California, priority 2020, published 2023):
# B1: 22109 (protein)
# chain: MALPVTALLLPLALLLHAARPMLPAPKNLVVSRITEDSARLSWTAPDAAFDSFPIRYIETLIWGEAIWLDVPGSERSYDLTGLKPGTEYAVVITGVKGGRFSSPLVASFTTGTGGGGSGGGGSGGGGSEFDIQMTQSPSSLSASVGDRVTITCKASDHINNWLAWYQQKPGQAPKLLIYGATTLETGVPSRFSGSGSGTDYTLTISSLQPEDFATYYCQQSWNTPWTFGQGTKLEIKRLEDLKNVFPPEVAVFEPSEAEISHTQKATLVCLATGFYPDHVELSWWVNGKEVHSGVCTDPQPLKEQPALNDSRYCLSSRLRVSATFWQNPRNHFRCQVQFYGLSENDEWTQDRAKPVTQIVSAEAWGRADCGFTSESYQQGVLSATILYEILLGKATLYAVLVSALVLMAMVKRKDSRGRAKRSGSGATNFSLLKQAGDVEENPGPTSMDWIWRILFLVGAATGAHSFEQVQLQQPGAELVKPGASVKMSCKASGYAFSSYWINWMKQKPGQGLEWIGQIYPGDGDTNYNGKFKGRATLTADTSSSTAYMQLSSLTSEDSAVYFCARSITTVVGCAMDYWGQGTSVTVSSTRIQNPDPAVYQLRDSKSSDKSVCLFTDFDSQTNVSQSKDSDVYITDKCVLDMRSMDFKSNSAVAWSNKSDFACANAFNNSIIPEDTFFPSPESSCDVKLVEKSFETDTNLNFQNLSVIGFRILLLKVAGFNLLMTLRLWSSRAKRSGSGVKQTLNFDLLKLAGDVESNPGPSRGHMTEYKPTVRLATRDDVPRAVRTLAAAFADYPATRHTVDPDRHIERVTELQELFLTRVGLDIGKVWVADDGAAVAVWTTPESVEAGAVFAEIGPRMAELSGSRLAAQQQMEGLLAPHRPKEPAWFLATVGVSPDHQGKGLGSAVVLPGVEAAERAGVPAFLETSAPRNLPFYERLGFTVTADVEVPEGPRTWCMTRKPGA
# B2: 22127 (protein)
# chain: MALPVTALLLPLALLLHAARPMLPAPKNLVVSRITEDSARLSWTAPDAAFDSFPIRYIETLIWGEAIWLDVPGSERSYDLTGLKPGTEYAVVITGVKGGRFSSPLVASFTTGTGGGGSGGGGSGGGGSEFDIQMTQSPSSLSASVGDRVTITCKASDHINNWLAWYQQKPGQAPKLLIYGATTLETGVPSRFSGSGSGTDYTLTISSLQPEDFATYYCQQSWNTPWTFGQGTKLEIKRLEIQNPDPAVYQLRDSKSSDKSVCLFTDFDSQTNVSQSKDSDVYITDKCVLDMRSMDFKSNSAVAWSNKSDFACANAFNNSIIPEDTFFPSSDVPCDVKLVEKSFETDTNLNFQNLSVIGFRILLLKVAGFNLLMTLRLWSSRAKRSGSGVKQTLNFDLLKLAGDVESNPGPTSATMDWIWRILFLVGAATGAHSGPQVQLQESGGGLAQAGGSLRLSCAASGRTFSMGWFRQAPGKEREFVAAITYSGGSPYYASSVRGRFTISRDNAKNTVYLQMNSLKPEDTAVYYCAANPTYGSDWNAENWGQGTQVTVSSGSGGGGSGGGGSGGGGSFEQVQLQQPGAELVKPGASVKMSCKASGYAFSSYWINWMKQKPGQGLEWIGQIYPGDGDTNYNGKFKGRATLTADTSSSTAYMQLSSLTSEDSAVYFCARSITTVVGCAMDYWGQGTSVTVSSTREDLKNVFPPEVAVFEPSKAEIAHTQKATLVCLATGFYPDHVELSWWVNGKEVHSGVCTDPQPLKEQPALNDSRYCLSSRLRVSATFWQNPRNHFRCQVQFYGLSENDEWTQDRAKPVTQIVSAEAWGRADCGITSASYHQGVLSATILYEILLGKATLYAVLVSALVLMAMVKRKDSRGRAKRSGSGATNFSLLKQAGDVEENPGPSRGHMTEYKPTVRLATRDDVPRAVRTLAAAFADYPATRHTVDPDRHIERVTELQELFLTRVGLDIGKVWVADDGAAVAVWTTPESVEAGAVFAEIGPRMAELSGSRLAAQQQMEGLLAPHRPKEPAWFLATVGVSPDHQGKGLGSAVVLPGVEAAERAGVPAFLETSAPRNLPFYERLGFTVTADVEVPEGPRTWCMTRKPGA
# B3: 22129 (protein)
# chain: MALPVTALLLPLALLLHAARPEVQVLESGGGLVQPGGSLRLSCAASGFTFSNFAMSWVRQAPGKGLEWVSTISGSAGTTDYADSVKGRFTISRDNSKKTLYLQMNSLRVEDTAVYYCADGRGPFFDYRGQGTLVTVSSGTGGGGSGGGGSGGGGSEFDIQMTQSPSSLSASVGDRVTITCKASDHINNWLAWYQQKPGQAPKLLIYGATTLETGVPSRFSGSGSGTDYTLTISSLQPEDFATYYCQQSWNTPWTFGQGTKLEIKRLEIQNPDPAVYQLRDSKSSDKSVCLFTDFDSQTNVSQSKDSDVYITDKCVLDMRSMDFKSNSAVAWSNKSDFACANAFNNSIIPEDTFFPSSDVPCDVKLVEKSFETDTNLNFQNLSVIGFRILLLKVAGFNLLMTLRLWSSRAKRSGSGVKQTLNFDLLKLAGDVESNPGPTSATMDWIWRILFLVGAATGAHSGPQVQLQESGGGLAQAGGSLRLSCAASGRTFSMGWFRQAPGKEREFVAAITYSGGSPYYASSVRGRFTISRDNAKNTVYLQMNSLKPEDTAVYYCAANPTYGSDWNAENWGQGTQVTVSSGSGGGGSGGGGSGGGGSFEQVQLQQPGAELVKPGASVKMSCKASGYAFSSYWINWMKQKPGQGLEWIGQIYPGDGDTNYNGKFKGRATLTADTSSSTAYMQLSSLTSEDSAVYFCARSITTVVGCAMDYWGQGTSVTVSSTREDLKNVFPPEVAVFEPSKAEIAHTQKATLVCLATGFYPDHVELSWWVNGKEVHSGVCTDPQPLKEQPALNDSRYCLSSRLRVSATFWQNPRNHFRCQVQFYGLSENDEWTQDRAKPVTQIVSAEAWGRADCGITSASYHQGVLSATILYEILLGKATLYAVLVSALVLMAMVKRKDSRGRAKRSGSGATNFSLLKQAGDVEENPGPSRGHMTEYKPTVRLATRDDVPRAVRTLAAAFADYPATRHTVDPDRHIERVTELQELFLTRVGLDIGKVWVADDGAAVAVWTTPESVEAGAVFAEIGPRMAELSGSRLAAQQQMEGLLAPHRPKEPAWFLATVGVSPDHQGKGLGSAVVLPGVEAAERAGVPAFLETSAPRNLPFYERLGFTVTADVEVPEGPRTWCMTRKPGA
# B4: 22111 (protein)
# chain: MALPVTALLLPLALLLHAARPEVQLLESGGGLVQPGGSLRLSCAASGFTFSSYAMSWVRQAPGKGLEWVSSISGSGDYIYYADSVKGRFTISRDISKNTLYLQMNSLRAEDTAVYYCAKEGTGANSSLADYRGQGTLVTVSSGTGGGGSGGGGSGGGGSEFDIQMTQSPSSLSASVGDRVTITCKASDHINNWLAWYQQKPGQAPKLLIYGATTLETGVPSRFSGSGSGTDYTLTISSLQPEDFATYYCQQSWNTPWTFGQGTKLEIKRLEDLKNVFPPEVAVFEPSEAEISHTQKATLVCLATGFYPDHVELSWWVNGKEVHSGVCTDPQPLKEQPALNDSRYCLSSRLRVSATFWQNPRNHFRCQVQFYGLSENDEWTQDRAKPVTQIVSAEAWGRADCGFTSESYQQGVLSATILYEILLGKATLYAVLVSALVLMAMVKRKDSRGRAKRSGSGATNFSLLKQAGDVEENPGPTSMDWIWRILFLVGAATGAHSFEQVQLQQPGAELVKPGASVKMSCKASGYAFSSYWINWMKQKPGQGLEWIGQIYPGDGDTNYNGKFKGRATLTADTSSSTAYMQLSSLTSEDSAVYFCARSITTVVGCAMDYWGQGTSVTVSSTRIQNPDPAVYQLRDSKSSDKSVCLFTDFDSQTNVSQSKDSDVYITDKCVLDMRSMDFKSNSAVAWSNKSDFACANAFNNSIIPEDTFFPSPESSCDVKLVEKSFETDTNLNFQNLSVIGFRILLLKVAGFNLLMTLRLWSSRAKRSGSGVKQTLNFDLLKLAGDVESNPGPSRGHMTEYKPTVRLATRDDVPRAVRTLAAAFADYPATRHTVDPDRHIERVTELQELFLTRVGLDIGKVWVADDGAAVAVWTTPESVEAGAVFAEIGPRMAELSGSRLAAQQQMEGLLAPHRPKEPAWFLATVGVSPDHQGKGLGSAVVLPGVEAAERAGVPAFLETSAPRNLPFYERLGFTVTADVEVPEGPRTWCMTRKPGA
# Tested on: L363 cells
# Assay: JNG assay, co-culture with L363 cells
# Format: cell-based
# Settings: co-culture with L363
# Method in brief: (§1)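 Jurkat-NFAT-GFP (JNG) cells stably expressing SAR constructs via lentiviral transduction and puromycin/blasticidin selection were cocultured with target cells at E:T ~1:2 for ~4–18 h. NFAT-driven GFP was measured by FACS versus parental JNG cells; scores +/- to 5+ denote ~5–50% GFP-positive cells.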
row,Molecule,NFAT-GFP ASSAY: L363
1,B1,"+/- (refer to approximately 5%, 10%, 20%, 30%, 40% and 50% GFP positive cells)"
2,B2,"Raji (+), Raji-CD19-KO (+), Nalm6 (+), L363 (+), RS411 (+) (refer to approximately 5%, 10%, 20%, 30%, 40% and 50% GFP positive cells)"
3,B3,"Raji (+), Raji-CD19-KO (+), Nalm6 (+), L363 (+), RS411 (+) (refer to approximately 5%, 10%, 20%, 30%, 40% and 50% GFP positive cells)"
4,B4,"3+ (refer to approximately 5%, 10%, 20%, 30%, 40% and 50% GFP positive cells)"

# Tested on: Nalm6 cells
# Assay: JNG assay, co-culture with Nalm6 cells
# Format: cell-based
# Settings: co-culture with Nalm6
# Method in brief: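 Jurkat NFAT-GFP reporter cells stably expressing lentivirally delivered SARs (puromycin or blasticidin selection) were cocultured with target cells at E:T ~1:2 for ~4–18 h. GFP was read by FACS, and % GFP+ cells were scored against parental reporter cells (+/-, +, 2+…5+ ≈ 5%, 10%, 20%…50%).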
row,Molecule,NFAT-GFP ASSAY: Nalm6
1,B1,"2+ (refer to approximately 5%, 10%, 20%, 30%, 40% and 50% GFP positive cells)"
2,B2,"Raji (+), Raji-CD19-KO (+), Nalm6 (+), L363 (+), RS411 (+) (refer to approximately 5%, 10%, 20%, 30%, 40% and 50% GFP positive cells)"
3,B3,"Raji (+), Raji-CD19-KO (+), Nalm6 (+), L363 (+), RS411 (+) (refer to approximately 5%, 10%, 20%, 30%, 40% and 50% GFP positive cells)"
4,B4,"2+ (refer to approximately 5%, 10%, 20%, 30%, 40% and 50% GFP positive cells)"

# Tested on: RS;411
# Assay: JNG assay, co-culture with RS;411 cells
# Format: cell-based
# Settings: co-culture with RS411
# Method in brief: as §1
row,Molecule,NFAT-GFP ASSAY: RS411
1,B1,"4+ (refer to approximately 5%, 10%, 20%, 30%, 40% and 50% GFP positive cells)"
2,B2,"Raji (+), Raji-CD19-KO (+), Nalm6 (+), L363 (+), RS411 (+) (refer to approximately 5%, 10%, 20%, 30%, 40% and 50% GFP positive cells)"
3,B3,"Raji (+), Raji-CD19-KO (+), Nalm6 (+), L363 (+), RS411 (+) (refer to approximately 5%, 10%, 20%, 30%, 40% and 50% GFP positive cells)"
4,B4,"4+ (refer to approximately 5%, 10%, 20%, 30%, 40% and 50% GFP positive cells)"

# Tested on: RAJI-CD19-KO cells
# Assay: JNG assay, co-culture with RAJI-CD19-KO cells
# Format: cell-based
# Settings: co-culture with Raji-CD19-KO
# Method in brief: as §1
row,Molecule,NFAT-GFP ASSAY: Raji-CD19-KO
1,B1,"+/- (refer to approximately 5%, 10%, 20%, 30%, 40% and 50% GFP positive cells)"
2,B2,"Raji (+), Raji-CD19-KO (+), Nalm6 (+), L363 (+), RS411 (+) (refer to approximately 5%, 10%, 20%, 30%, 40% and 50% GFP positive cells)"
3,B3,"Raji (+), Raji-CD19-KO (+), Nalm6 (+), L363 (+), RS411 (+) (refer to approximately 5%, 10%, 20%, 30%, 40% and 50% GFP positive cells)"
4,B4,"3+ (refer to approximately 5%, 10%, 20%, 30%, 40% and 50% GFP positive cells)"

# Tested on: RAJI cells
# Assay: JNG assay, co-culture with RAJI cells
# Format: cell-based
# Settings: JNG cells expressing construct, co-culture with Raji
# Method in brief: as §1
row,Molecule,NFAT-GFP ASSAY: Raji
1,B1,"2+ (refer to approximately 5%, 10%, 20%, 30%, 40% and 50% GFP positive cells)"
2,B2,"Raji (+), Raji-CD19-KO (+), Nalm6 (+), L363 (+), RS411 (+) (refer to approximately 5%, 10%, 20%, 30%, 40% and 50% GFP positive cells)"
3,B3,"Raji (+), Raji-CD19-KO (+), Nalm6 (+), L363 (+), RS411 (+) (refer to approximately 5%, 10%, 20%, 30%, 40% and 50% GFP positive cells)"
4,B4,"4+ (refer to approximately 5%, 10%, 20%, 30%, 40% and 50% GFP positive cells)"
